Test results from patent US7648703.

Target: Ep-CAM antigen (human pan-carcinoma antigen) (human) (UniProt P16422)
Test: antibody binding to HT29 adenocarcinoma cells after 15 minute incubation; drug-treated against control cells

UniProt P16422, sequence (P16422 24-314): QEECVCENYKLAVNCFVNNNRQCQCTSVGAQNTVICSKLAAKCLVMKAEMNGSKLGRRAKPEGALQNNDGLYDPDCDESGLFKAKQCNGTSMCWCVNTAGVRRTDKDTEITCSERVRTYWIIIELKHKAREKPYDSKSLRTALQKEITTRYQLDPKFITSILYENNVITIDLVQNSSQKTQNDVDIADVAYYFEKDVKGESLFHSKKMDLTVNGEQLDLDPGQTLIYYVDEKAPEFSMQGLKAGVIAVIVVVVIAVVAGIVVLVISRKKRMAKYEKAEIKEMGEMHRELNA

- increase in antibody binding (cells treated with Navelbine plus Cisplatin against control cells): 34%
- increase in antibody binding (cells treated with Taxol against control cells): 8%
B1: Panorex (17-1A mouse monoclonal antibody) (antibody, INN chains, looked up, V domains shown)
VH: QVQLQQSGAELVRPGTSVKVSCKASGYAFTNYLIEWVKQRPGQGLEWIGVINPGSGGTNYNEKFKGKATLTADKSSSTAYMQLSSLTSDDSAVYFCARDGPWFAYWGQGTLVTVSA
VL: NIVMTQSPKSMSMSVGERVTLTCKASENVVTYVSWYQQKPEQSPKLLIYGASNRYTGVPDRFTGSGSATDFTLTISSVQAEDLADYHCGQGYSYPYTFGGGTKLEIK
